B1: SHOX -45G (rs1452787381 minor) (dsDNA)
DNA 1: GAGGTCGCCGCGTGTAAATAGTGAGA
DNA 2: TCTCACTATTTACACGCGGCGACCTC
B2: SHOX -45A (rs1452787381 WT) (dsDNA)
DNA 1: GAGGTCGCCGCGTATAAATAGTGAGA
DNA 2: TCTCACTATTTATACGCGGCGACCTC
B3: ZFY -56C (WT) (dsDNA)
DNA 1: GGCGGAGGGGGCCCAACTACCATCCC
DNA 2: GGGATGGTAGTTGGGCCCCCTCCGCC
B4: CDY2A -24 WT (printed -24G, sequence has T) (dsDNA)
DNA 1: AGAATGTTCCATATAATCGTCATAGC
DNA 2: GCTATGACGATTATATGGAACATTCT
B5: ZFY -56T (minor) (dsDNA)
DNA 1: GGCGGAGGGGGCCTAACTACCATCCC
DNA 2: GGGATGGTAGTTAGGCCCCCTCCGCC
B6: GTPBP6 -24T (rs1393008234 minor) (dsDNA)
DNA 1: ATCACGAGCACGTTATGAGGAGCGGC
DNA 2: GCCGCTCCTCATAACGTGCTCGTGAT
B7: CDY2A -24 minor (printed -24t, sequence has C) (dsDNA)
DNA 1: AGAATGTTCCATACAATCGTCATAGC
DNA 2: GCTATGACGATTGTATGGAACATTCT
B8: ASMT -30G (rs1402972626 WT) (dsDNA)
DNA 1: GGTGACCTTTTGTGCCCAGAATAGGT
DNA 2: ACCTATTCTGGGCACAAAAGGTCACC
B9: GTPBP6 -24G (rs1393008234 WT) (dsDNA)
DNA 1: ATCACGAGCACGTGATGAGGAGCGGC
DNA 2: GCCGCTCCTCATCACGTGCTCGTGAT
B10: ASMT -30A (rs1402972626 minor) (dsDNA)
DNA 1: GGTGACCTTTTGTACCCAGAATAGGT
DNA 2: ACCTATTCTGGGTACAAAAGGTCACC

biological target: T1, TBP (TATA-binding protein) (human, UniProt P20226 1-339); assay: EMSA; 2 nM TBP; Kd from association kinetics; EMSA with 2 nM TBP and varied ODN concentrations; Kd from reaction rates vs ODN concentration (GraphPad Prism 5); buffer, salt, pH and temperature not given in; conditions: protein: recombinant; blunt
T1 sequence (P20226 whole entry): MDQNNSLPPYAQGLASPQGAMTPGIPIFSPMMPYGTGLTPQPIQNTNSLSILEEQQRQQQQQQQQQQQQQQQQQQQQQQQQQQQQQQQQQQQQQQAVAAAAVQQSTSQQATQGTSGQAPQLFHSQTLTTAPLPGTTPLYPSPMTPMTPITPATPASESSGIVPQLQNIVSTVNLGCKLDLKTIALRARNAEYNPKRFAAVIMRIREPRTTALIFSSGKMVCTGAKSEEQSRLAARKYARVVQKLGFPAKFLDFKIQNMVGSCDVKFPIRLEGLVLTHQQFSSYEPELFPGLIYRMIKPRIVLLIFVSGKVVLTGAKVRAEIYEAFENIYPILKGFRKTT

With B1 as the molecule, how does the Kd read?
Its Kd is 260 ± 70 nM.

For B2, which Kd is on record?
The Kd was 39 ± 7 nM.

biological target: TBP (Homo sapiens) (UniProt P20226); assay: not given; conditions: cited from earlier work

For TBP (from UniProt P20226), which Kd is on record?
The Kd was 4 nM.

biological target: T1, TBP (TATA-binding protein); assay: EMSA; 2 nM TBP; EMSA with 2 nM TBP and varied ODN concentrations; Kd from reaction rates vs ODN concentration (GraphPad Prism 5); buffer, salt, pH and temperature not given in; conditions: protein: recombinant; blunt

With B3 as the molecule, how does the Kd read?
Its Kd is 1000 ± 400 nM.

For B4, which Kd is on record?
The Kd was 160 ± 30 nM.

For B5, which Kd is on record?
Its Kd is 2000 ± 1000 nM.

With B6 as the molecule, how does the Kd read?
Its Kd is 1400 ± 200 nM.

Which Kd does the source give for B7 here?
The Kd was 500 ± 200 nM.

For B8, which Kd is on record?
Its Kd is 600 ± 300 nM.

Which Kd does the source give for B9 here?
The Kd was 1500 ± 200 nM.

With B10 as the molecule, how does the Kd read?
The Kd was 1000 ± 300 nM.

From article PMC7583315, “Disruptive natural selection by male reproductive potential prevents underexpression of protein-coding genes on the human Y chromosome as a self-domestication syndrome”
